Experimental data published in patent US20260097105A1, “SYSTEMS, FORMULATIONS AND METHODS FOR GENERATING UNIVERSAL PEPTIDE/MHC COMPLEXES WITH ENGINEERED DISULFIDE CONNECTING THE HEAVY AND LIGHT CHAINS” (priority 2022, published 2026).

Key:
[1] = target: WT HLA-A*29:02/β2m/[…] (human); experiment: competition; settings: chains peptide; modification not given
[2] = target: open HLA-A*24:02 (G120C)/β2m (H31C)/… (human); experiment: fluorescence polarization, peptide exchange, 200 nM pMHC

| Binder | IC50 [1] [nM] | fold of peptide exchange kinetics (Kassoc.) against WT HLA-A*24:02 [2] [fold] |
| --- | --- | --- |
| ALIDVFHQY | 49 |  |
| KYNPIRTTF (modifications not checked) |  | 6 |
